Measured values as given in PMC4859069 (2016).

Molecular target: T1, GST-14-3-3ζ (Drosophila melanogaster (Fruit fly), UniProt P29310)
T1 chain: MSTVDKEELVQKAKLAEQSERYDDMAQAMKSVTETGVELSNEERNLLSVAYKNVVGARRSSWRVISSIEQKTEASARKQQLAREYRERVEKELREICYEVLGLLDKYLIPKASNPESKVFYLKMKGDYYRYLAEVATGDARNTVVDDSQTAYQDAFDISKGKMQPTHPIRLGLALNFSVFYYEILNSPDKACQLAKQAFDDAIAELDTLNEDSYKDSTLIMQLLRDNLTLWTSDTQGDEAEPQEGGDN
Experiment: GST pull-down

B1: MBP-Tctp (protein)
chain: MKIYKDIITGDEMFADTYKMKLVDDVIYEVYGKLITRQGDDIKLEGANASAEEADEGTDITSESGVDVVLNHRLTECFAFGDKKSYTLYLKDYMKKVLAKLEEKSPDQVDIFKTNMNKAMKDILGRFKELQFFTGESMDCDGMVALVEYREINGDSVPVLMFFKHGLEEEKC
Question: Does B1 bind?
Answer: binds
